In patent US9872887B2, “Extracellular matrix-binding synthetic peptidoglycans” (Purdue Research Foundation, priority 2013, dated 2018):

Experiment: Rheological measurements on bovine vitreous
Settings: trypsin treated vs no treatment and PBS buffer; FIG. 3A
Description: The synthetic peptidoglycans according to the present disclosure can be tested as follows. Viscoelastic properties can be measured using a rheometer, for example the TAInstruments ARG2 rheometer. A cone and plate geometry or a parallel plate geometry can be used. Vitreous humor (e.g., bovine) can be placed within the geometry. The temperature can be controlled and frequency sweeps can be performed from ranges of about 0.1 Hz to about 100 Hz (e.g., 1 Hz) and storage, loss, and complex modulus can be measured at an oscillatory shear stress between about 0.1 Pa and about 10 Pa (e.g., 10 Pa). Temperature: 37° C.

In the case of trypsin, the “viscosity of bovine vitreous” value is reported as “lower viscosity”.
